# Assay results: patent US20140271602, “NUCLEOTIDE-SPECIFIC RECOGNITION SEQUENCES FOR DESIGNER TAL EFFECTORS” (THE BROAD INSTITUTE INC., published 2014)
# T1: TALE2-NH (CACNA1C site 2 activator) (Xanthomonas (engineered), UniProt P14727 SEQ:1-983)
# T1 chain: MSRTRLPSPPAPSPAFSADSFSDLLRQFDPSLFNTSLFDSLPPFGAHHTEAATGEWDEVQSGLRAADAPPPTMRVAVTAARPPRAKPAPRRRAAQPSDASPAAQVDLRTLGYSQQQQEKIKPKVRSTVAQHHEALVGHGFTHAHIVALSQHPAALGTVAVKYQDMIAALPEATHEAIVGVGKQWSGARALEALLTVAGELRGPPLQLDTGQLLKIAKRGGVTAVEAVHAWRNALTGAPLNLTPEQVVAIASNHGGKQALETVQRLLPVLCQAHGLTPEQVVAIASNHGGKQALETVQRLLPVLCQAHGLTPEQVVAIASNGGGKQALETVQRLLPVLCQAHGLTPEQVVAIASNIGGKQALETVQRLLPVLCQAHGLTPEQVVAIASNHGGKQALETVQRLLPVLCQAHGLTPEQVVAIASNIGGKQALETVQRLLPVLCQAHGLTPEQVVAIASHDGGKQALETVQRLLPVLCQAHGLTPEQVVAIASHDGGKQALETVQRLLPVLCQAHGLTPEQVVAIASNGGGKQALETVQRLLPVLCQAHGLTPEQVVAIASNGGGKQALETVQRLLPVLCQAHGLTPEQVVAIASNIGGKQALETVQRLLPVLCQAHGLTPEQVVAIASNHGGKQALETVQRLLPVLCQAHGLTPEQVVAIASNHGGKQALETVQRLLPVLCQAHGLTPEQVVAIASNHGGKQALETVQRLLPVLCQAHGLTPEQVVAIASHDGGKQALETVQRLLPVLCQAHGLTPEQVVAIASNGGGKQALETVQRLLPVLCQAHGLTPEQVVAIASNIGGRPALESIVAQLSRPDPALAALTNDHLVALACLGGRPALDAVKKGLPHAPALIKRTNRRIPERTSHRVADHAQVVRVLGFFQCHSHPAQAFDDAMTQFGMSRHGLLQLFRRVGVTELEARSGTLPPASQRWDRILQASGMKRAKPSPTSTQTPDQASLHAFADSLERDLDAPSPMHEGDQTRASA
# T2: TALE2-NN (CACNA1C site 2 activator) (Xanthomonas (engineered), UniProt P14727 SEQ:1-983)
# T2 chain: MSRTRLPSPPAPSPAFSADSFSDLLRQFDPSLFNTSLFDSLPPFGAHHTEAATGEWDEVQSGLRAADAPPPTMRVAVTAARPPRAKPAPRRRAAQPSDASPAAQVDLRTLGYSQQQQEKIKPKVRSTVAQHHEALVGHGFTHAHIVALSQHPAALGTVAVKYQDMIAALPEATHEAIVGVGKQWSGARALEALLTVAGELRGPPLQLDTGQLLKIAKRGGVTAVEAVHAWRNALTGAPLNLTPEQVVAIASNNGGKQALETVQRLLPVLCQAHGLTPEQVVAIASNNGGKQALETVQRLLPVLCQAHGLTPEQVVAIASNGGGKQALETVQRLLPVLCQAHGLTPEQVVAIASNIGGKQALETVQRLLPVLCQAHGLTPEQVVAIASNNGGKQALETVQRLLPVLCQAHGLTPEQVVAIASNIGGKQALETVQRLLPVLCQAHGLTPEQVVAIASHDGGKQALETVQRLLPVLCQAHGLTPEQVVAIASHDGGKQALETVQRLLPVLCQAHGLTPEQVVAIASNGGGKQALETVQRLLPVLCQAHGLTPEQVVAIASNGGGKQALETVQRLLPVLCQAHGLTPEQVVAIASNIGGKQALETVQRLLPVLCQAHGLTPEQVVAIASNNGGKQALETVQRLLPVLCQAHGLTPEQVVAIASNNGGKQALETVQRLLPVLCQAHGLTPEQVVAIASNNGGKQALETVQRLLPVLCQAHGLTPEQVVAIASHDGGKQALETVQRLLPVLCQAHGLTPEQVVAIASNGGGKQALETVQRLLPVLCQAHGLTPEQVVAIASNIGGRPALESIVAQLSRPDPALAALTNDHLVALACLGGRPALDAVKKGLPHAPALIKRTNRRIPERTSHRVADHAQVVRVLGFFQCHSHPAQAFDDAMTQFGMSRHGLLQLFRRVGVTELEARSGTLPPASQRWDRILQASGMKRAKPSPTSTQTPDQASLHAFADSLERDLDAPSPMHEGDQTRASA
# Assays:
# [1] = system: SOX2 TALE-TF (Xanthomonas (engineered)); test: cell_activity; settings: endogenous SOX2
# [2] = system: AAVS1 right TALEN (Xanthomonas (engineered)); test: cell_activity; settings: Surveyor assay, with left TALEN, 293FT
# [3] = system: NN-TALE (RVD screening) (Xanthomonas (engineered)); test: cell_activity; settings: luciferase reporter
# [4] = system: NH-TALE (RVD screening) (Xanthomonas (engineered)); test: cell_activity; settings: luciferase reporter
# [5] = system: AAVS1 left TALEN (Xanthomonas (engineered)); test: cell_activity; settings: Surveyor assay, with right TALEN, 293FT
# [6] = biological target: T1, TALE2-NH (CACNA1C site 2 activator); test: cell_activity; HEK 293FT, endogenous mRNA; reporter 2.7x that of NK; settings: tags: VP64, 2A-GFP
# [7] = biological target: T2, TALE2-NN (CACNA1C site 2 activator); test: cell_activity; HEK 293FT, endogenous CACNA1C mRNA; settings: tags: VP64, 2A-GFP
# Description: Changes in mRNA are measured using qRT-PCR as described previously. VP64, VP64 transcription activation domain. All results are collected from three independent experiments in HEK 293FT cells. Error bars indicate s.e.m.; n=3. FIG. 19(b) discloses SEQ ID NOS 63 and 62, respectively, in order of appearance.
# Using qRT-PCR, the performance of NN, NK, NH, and HN for targeting endogenous genomic sequences was further compared. The ability of NN-, NK-, NH-, and HN-TALEs to activate CACNA1C transcription by targeting the two endogenous target sites was tested (FIG. 19b). […] Both TALE 1-NH and TALE2-NH were able to achieve similar levels of transcriptional activation as TALE1-NN and TALE2-NN (˜5 and ˜3 folds of activation for targets 1 and 2, respectively) and twice more than TALE-NK and TALE2-NK (FIG. 19b). […] On the other hand, based on all the results from specificity and endogenous activity tests, the RVD NH seems to be a more suitable substitute for NN than NK when higher targeting specificity is desired, as it also provides higher levels of biological activity. Further testing using additional endogenous genomic targets helps validate the broad utility of NH as a highly specific G-targeting RVD.
# For the endogenous gene transcriptional level assay to test the biological activities of TALE activators and TALE repressors, HEK 293FT cells were seeded into 24-well plates. […]
molecule,measurement,setting,value
SOX2 TALE-TF site,activity (fold activation),[1],< 5
GTCCTAACCACTGTCTTT (double strand) [AAVS1 right TALEN site],activity (% cleavage (pair)),[2],< 3.6
TTCTTGGTTATAAC (double strand) [RVD screen G-reporter],binding signal (G- to A-reporter activation ratio),[3],3.5
same,binding signal (G- to A-reporter activation ratio),[4],16.4
TGTCCCCTCCACCCCACA (double strand) [AAVS1 left TALEN site],activity (% cleavage (pair)),[5],< 3.6
CACNA1C site 2 (dsDNA) DNA 1: TGGTAGACCTTAGGGCTA DNA 2: TAGCCCTAAGGTCTACCA,activity,[6],~3 fold activation
same,activity,[7],~3 fold activation
